# Data: patent US20200405759A1 (UCL BUSINESS, published 2020)
# B1: Clone F anti-ROR1 antibody (whole immunoglobulin) (antibody, V domains shown)
# VH: EVQLVESGGGLVQPGRSLKLSCAASGFIFSEHNMAWVRQAPKKGLEWVATISDDGRNTYYRDSMRGRFTISRENARSTLYLQLDSLRSEDTATYYCASHRYNLFDSWGQGVMVTVSS
# VL: DIQMTQSPSFLSASVGDRVTINCKASQNIDRYLNWYQQKLGEAPKRLLYNTNKLQTGIPSRFSGSGSATDFTLTISSLQPEDFATYFCLQYNSLPLTFGSGTKLEIK
# notes: Rat variable domains; also called clone F antibody
# Biological target: T1, human ROR1-Fz domain with Q(261)H and I(254)V (human, UniProt Q01973 165-299)
# T1 construct: domain: Fz; it is not clear whether the construct was Fz only or a longer ROR1
# Experiment: antibody binding to point mutants of human ROR1, FIG. 7
# T1 sequence (Q01973 165-299 I254V/Q261H): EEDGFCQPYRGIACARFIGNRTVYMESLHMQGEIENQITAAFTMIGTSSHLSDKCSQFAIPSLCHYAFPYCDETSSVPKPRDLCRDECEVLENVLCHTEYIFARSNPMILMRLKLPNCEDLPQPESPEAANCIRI
binder,measurement,value
B1,binding result,no binding
